Values quoted from earlier work as cited in publication PMC3078979.

Target: Gamide (amidated gastrin) (Homo sapiens) (UniProt P01350)
Experiment: ultracentrifugation

In the case of apo-transferrin (from UniProt P02787), the Kd is given as 6.4 µM.
